Test results published in patent US20230140293A1.

Columns and labels:
[1] = biological target: CH0505.w4.3 Env, Env-pseudotyped virus produced in 293T cells (HIV-1); experiment: cell-based or functional assay
[2] = biological target: CH0505TF Env, Env-pseudotyped virus produced in 293T cells (HIV-1); experiment: cell-based or functional assay
[3] = biological target: CH0505TF Env, pseudotyped virus produced in 293S GnTI- cells (HIV-1); experiment: cell-based or functional assay
[4] = biological target: CH0505TF.G458Y Env, Env-pseudotyped virus produced in 293T cells (HIV-1); experiment: cell-based or functional assay
[5] = biological target: CH0505TF.G458Y Env, pseudotyped virus produced in 293S GnTI- cells (HIV-1); experiment: cell-based or functional assay
[6] = biological target: CH0505TF.gly3.197 Env, Env-pseudotyped virus produced in 293T cells (HIV-1); experiment: cell-based or functional assay
[7] = biological target: CH0505TF.gly3.197 Env, pseudotyped virus produced in 293S GnTI- cells (HIV-1); experiment: cell-based or functional assay
[8] = biological target: CH0505TF.gly3.276 Env, Env-pseudotyped virus produced in 293T cells (HIV-1); experiment: cell-based or functional assay
[9] = biological target: CH0505TF.gly3.276 Env, pseudotyped virus produced in 293S GnTI- cells (HIV-1); experiment: cell-based or functional assay
[10] = biological target: CH0505TF.gly3.461 Env, Env-pseudotyped virus produced in 293T cells (HIV-1); experiment: cell-based or functional assay
[11] = biological target: CH0505TF.gly3.461 Env, pseudotyped virus produced in 293S GnTI- cells (HIV-1); experiment: cell-based or functional assay
[12] = biological target: CH0505TF.gly4 Env, Env-pseudotyped virus produced in 293T cells (HIV-1); experiment: cell-based or functional assay
[13] = biological target: CH0505TF.gly4 Env, pseudotyped virus produced in 293S GnTI- cells (HIV-1); experiment: cell-based or functional assay
[14] = biological target: HIV-1 426c.DM (N460D/N463D) Env on Env-pseudotyped virus produced in 293T cells (HIV-1); experiment: cell-based or functional assay
[15] = biological target: HIV-1 426c.DM (N460D/N463D) Env on Env-pseudotyped virus produced in 293s/GnTI-/- cells (Man5-enrichment) (HIV-1); experiment: cell-based or functional assay
[16] = biological target: HIV-1 426c.SM (N276D) Env on Env-pseudotyped virus produced in 293T cells (HIV-1); experiment: cell-based or functional assay
[17] = biological target: HIV-1 426c.SM (N276D) Env on Env-pseudotyped virus produced in 293s/GnTI-/- cells (Man5-enrichment) (HIV-1); experiment: cell-based or functional assay
[18] = biological target: HIV-1 426c.TM (N276D/N460D/N463D) Env on Env-pseudotyped virus produced in 293T cells (HIV-1); experiment: cell-based or functional assay
[19] = biological target: HIV-1 426c.TM (N276D/N460D/N463D) Env on Env-pseudotyped virus produced in 293s/GnTI-/- cells (Man5-enrichment) (HIV-1); experiment: cell-based or functional assay
[20] = biological target: HIV-1 Env 426c, Env-pseudotyped virus produced in 293S GnTI- cells (Man5-enriched) (HIV-1 clade C strain 426c); experiment: cell-based or functional assay
[21] = biological target: HIV-1 Env 426c, Env-pseudotyped virus produced in 293T cells (HIV-1 clade C strain 426c); experiment: cell-based or functional assay
[22] = biological target: HIV-1 Env 426c.DM (N460D.N463D), Env-pseudotyped virus produced in 293S GnTI- cells (Man5-enriched) (HIV-1 clade C strain 426c); experiment: cell-based or functional assay
[23] = biological target: HIV-1 Env 426c.DM (N460D.N463D), Env-pseudotyped virus produced in 293T cells (HIV-1 clade C strain 426c); experiment: cell-based or functional assay
[24] = biological target: HIV-1 Env 426c.SM (N276D), Env-pseudotyped virus produced in 293S GnTI- cells (Man5-enriched) (HIV-1 clade C strain 426c); experiment: cell-based or functional assay
[25] = biological target: HIV-1 Env 426c.SM (N276D), Env-pseudotyped virus produced in 293T cells (HIV-1 clade C strain 426c); experiment: cell-based or functional assay
[26] = biological target: HIV-1 Env 426c.TM (N276D.N460D.N463D), Env-pseudotyped virus produced in 293S GnTI- cells (Man5-enriched) (HIV-1 clade C strain 426c); experiment: cell-based or functional assay
[27] = biological target: HIV-1 Env 426c.TM (N276D.N460D.N463D), Env-pseudotyped virus produced in 293T cells (HIV-1 clade C strain 426c); experiment: cell-based or functional assay
[28] = biological target: HIV-1 Env 426c.TM4 (S278R.G471S.N460D.N463D), Env-pseudotyped virus produced in 293S GnTI- cells (Man5-enriched) (HIV-1 clade C strain 426c); experiment: cell-based or functional assay
[29] = biological target: HIV-1 Env 426c.TM4 (S278R.G471S.N460D.N463D), Env-pseudotyped virus produced in 293T cells (HIV-1 clade C strain 426c); experiment: cell-based or functional assay
[30] = biological target: HIV-1 clade C strain 426c Env on Env-pseudotyped virus produced in 293T cells (HIV-1); experiment: cell-based or functional assay
[31] = biological target: HIV-1 clade C strain 426c Env on Env-pseudotyped virus produced in 293s/GnTI-/- cells (Man5-enrichment) (HIV-1); experiment: cell-based or functional assay
[32] = biological target: HIV-1 CH0505TF (CH505 transmitted/founder) Env on Env-pseudotyped virus produced in 293T cells (HIV-1); experiment: cell-based or functional assay
[33] = biological target: HIV-1 CH0505TF.G458Y Env on Env-pseudotyped virus produced in 293T cells (HIV-1); experiment: cell-based or functional assay
[34] = biological target: HIV-1 CH0505TF.N280D Env on Env-pseudotyped virus produced in 293T cells (HIV-1); experiment: cell-based or functional assay
[35] = biological target: HIV-1 CH0505TF.S365P Env on Env-pseudotyped virus produced in 293T cells (HIV-1); experiment: cell-based or functional assay
CH505 M11 gp120 (HIV-1) = experiment: ELISA, gp120 on plate
CH505 M5 gp120 (HIV-1) = experiment: ELISA, gp120 on plate
[36] = biological target: CH505 transmitted/founder (TF) gp120 (HIV-1); experiment: ELISA, gp120 on plate
[37] = biological target: CH505 w020.14 gp120 (HIV-1); experiment: ELISA, gp120 on plate
[38] = biological target: CH505 w030.21 gp120 (HIV-1); experiment: ELISA, gp120 on plate
[39] = biological target: CH505 w030.28 gp120 (HIV-1); experiment: ELISA, gp120 on plate
[40] = biological target: CH505 w053.16 gp120 (HIV-1); experiment: ELISA, gp120 on plate
[41] = biological target: CH505 w053.31 gp120 (HIV-1); experiment: ELISA, gp120 on plate
[42] = biological target: CH505 w078.15 gp120 (HIV-1); experiment: ELISA, gp120 on plate
[43] = biological target: CH505 w078.33 gp120 (HIV-1); experiment: ELISA, gp120 on plate
[44] = biological target: CH505 w100.B6 gp120 (HIV-1); experiment: ELISA, gp120 on plate

3BNC117 (antibody)
IC50 (µg/ml) in TZM-bl [1]: 0.02 µg/mL | IC50 (µg/ml) in TZM-bl [2]: 0.03 µg/mL | IC50 (µg/ml) in TZM-bl [3]: 0.01 µg/mL | IC50 (µg/ml) in TZM-bl [4]: > 25 µg/mL | IC50 (µg/ml) in TZM-bl [5]: 18 µg/mL | IC50 (µg/ml) in TZM-bl [6]: 0.005 µg/mL | IC50 (µg/ml) in TZM-bl [7]: 0.004 µg/mL | IC50 (µg/ml) in TZM-bl [8]: 0.001 µg/mL | IC50 (µg/ml) in TZM-bl [9]: 0.001 µg/mL | IC50 (µg/ml) in TZM-bl [10]: 0.002 µg/mL | IC50 (µg/ml) in TZM-bl [11]: 0.002 µg/mL | IC50 (µg/ml) in TZM-bl [12]: 0.001 µg/mL | IC50 (µg/ml) in TZM-bl [13]: 0.001 µg/mL | ID50/IC50 in TZM-bl [14]: 0.13 µg/mL | ID50/IC50 in TZM-bl [15]: 0.006 µg/mL | ID50/IC50 in TZM-bl [16]: 0.24 µg/mL | ID50/IC50 in TZM-bl [17]: 0.01 µg/mL | ID50/IC50 in TZM-bl [18]: 0.01 µg/mL | ID50/IC50 in TZM-bl [19]: 0.003 µg/mL | IC50 (µg/ml) in TZM-bl [20]: 0.02 µg/mL | IC50 (µg/ml) in TZM-bl [21]: 0.2 µg/mL | IC50 (µg/ml) in TZM-bl [22]: 0.006 µg/mL | IC50 (µg/ml) in TZM-bl [23]: 0.13 µg/mL | IC50 (µg/ml) in TZM-bl [24]: 0.01 µg/mL | IC50 (µg/ml) in TZM-bl [25]: 0.24 µg/mL | IC50 (µg/ml) in TZM-bl [26]: 0.003 µg/mL | IC50 (µg/ml) in TZM-bl [27]: 0.01 µg/mL | IC50 (µg/ml) in TZM-bl [28]: < 0.001 µg/mL | IC50 (µg/ml) in TZM-bl [29]: 0.003 µg/mL | ID50/IC50 in TZM-bl [30]: 0.2 µg/mL | ID50/IC50 in TZM-bl [31]: 0.02 µg/mL | IC50 (µg/ml) in TZM-bl [32]: 0.03 µg/mL | IC50 (µg/ml) in TZM-bl [33]: > 25 µg/mL | IC50 (µg/ml) in TZM-bl [34]: > 25 µg/mL | IC50 (µg/ml) in TZM-bl [35]: 0.01 µg/mL

CH103 lineage intermediate ancestor IA1 (antibody)
log AUC (CH505 M11 gp120 (HIV-1)): 12.2 log AUC | log AUC (CH505 M5 gp120 (HIV-1)): 7 log AUC | log AUC [36]: 10.4 log AUC | log AUC [37]: 10.3 log AUC | log AUC [38]: 11.8 log AUC | log AUC [39]: 10.1 log AUC | log AUC [40]: 8.8 log AUC | log AUC [41]: 13.4 log AUC | log AUC [42]: 10.9 log AUC | log AUC [43]: 8.2 log AUC | log AUC [44]: 12.2 log AUC

CH103 lineage intermediate ancestor IA2 (antibody)
log AUC (CH505 M11 gp120 (HIV-1)): 12.7 log AUC | log AUC (CH505 M5 gp120 (HIV-1)): 7.8 log AUC | log AUC [36]: 10.8 log AUC | log AUC [37]: 11 log AUC | log AUC [38]: 11.5 log AUC | log AUC [39]: 11.1 log AUC | log AUC [40]: 9.3 log AUC | log AUC [41]: 13.3 log AUC | log AUC [42]: 11.5 log AUC | log AUC [43]: 9 log AUC | log AUC [44]: 12.1 log AUC

CH104 (antibody)
log AUC (CH505 M11 gp120 (HIV-1)): 12 log AUC | log AUC (CH505 M5 gp120 (HIV-1)): 9 log AUC | log AUC [36]: 10.4 log AUC | log AUC [37]: 10.4 log AUC | log AUC [38]: 11.3 log AUC | log AUC [39]: 10.7 log AUC | log AUC [40]: 9.9 log AUC | log AUC [41]: 13.7 log AUC | log AUC [42]: 10.8 log AUC | log AUC [43]: 9 log AUC | log AUC [44]: 11 log AUC
